Laboratory results reported in patent US20100145007A1 (Janssen / Centocor, published 2010).

T1: human LGR7 (human, UniProt Q9HBX9 1-757)
T1 sequence (looked up): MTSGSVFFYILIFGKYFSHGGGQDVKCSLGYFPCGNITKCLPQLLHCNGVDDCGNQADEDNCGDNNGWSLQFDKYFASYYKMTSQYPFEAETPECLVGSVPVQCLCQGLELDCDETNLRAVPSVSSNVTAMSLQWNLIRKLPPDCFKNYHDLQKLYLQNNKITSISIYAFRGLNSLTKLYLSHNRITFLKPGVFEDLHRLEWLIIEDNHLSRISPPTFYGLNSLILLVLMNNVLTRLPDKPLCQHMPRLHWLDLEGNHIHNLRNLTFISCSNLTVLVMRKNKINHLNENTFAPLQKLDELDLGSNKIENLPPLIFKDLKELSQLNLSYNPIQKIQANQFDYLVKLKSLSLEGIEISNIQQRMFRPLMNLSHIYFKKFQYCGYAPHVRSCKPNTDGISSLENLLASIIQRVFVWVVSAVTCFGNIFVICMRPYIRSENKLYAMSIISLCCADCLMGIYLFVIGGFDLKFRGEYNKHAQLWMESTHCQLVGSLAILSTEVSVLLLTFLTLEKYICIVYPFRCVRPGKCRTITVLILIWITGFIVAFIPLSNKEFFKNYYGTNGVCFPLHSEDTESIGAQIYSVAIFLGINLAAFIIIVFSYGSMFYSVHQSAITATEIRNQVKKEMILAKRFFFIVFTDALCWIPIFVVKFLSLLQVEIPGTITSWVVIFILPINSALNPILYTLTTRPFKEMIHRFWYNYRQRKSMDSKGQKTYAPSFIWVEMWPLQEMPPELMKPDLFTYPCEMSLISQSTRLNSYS

T2: human GPCR135 (human, UniProt Q9NSD7 1-469)
T2 construct: whole, on cells; also called SALPR
T2 sequence (looked up): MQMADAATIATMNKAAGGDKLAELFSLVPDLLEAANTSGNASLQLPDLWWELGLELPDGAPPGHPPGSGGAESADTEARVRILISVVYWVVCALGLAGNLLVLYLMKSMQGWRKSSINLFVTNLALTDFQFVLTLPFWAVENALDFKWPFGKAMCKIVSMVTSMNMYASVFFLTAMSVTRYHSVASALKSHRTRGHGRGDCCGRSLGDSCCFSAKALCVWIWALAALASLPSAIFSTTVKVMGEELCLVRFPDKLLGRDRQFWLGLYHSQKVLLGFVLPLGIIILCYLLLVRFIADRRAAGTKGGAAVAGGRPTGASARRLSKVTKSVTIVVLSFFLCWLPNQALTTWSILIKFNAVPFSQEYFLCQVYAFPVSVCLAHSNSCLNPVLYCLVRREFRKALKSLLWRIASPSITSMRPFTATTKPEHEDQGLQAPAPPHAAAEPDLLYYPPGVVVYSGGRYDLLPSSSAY

T3: rat LGR7 (rat, UniProt Q6R6I6 1-758)
T3 construct: whole, on cells; also called recombinant rat LGR7
T3 sequence (looked up): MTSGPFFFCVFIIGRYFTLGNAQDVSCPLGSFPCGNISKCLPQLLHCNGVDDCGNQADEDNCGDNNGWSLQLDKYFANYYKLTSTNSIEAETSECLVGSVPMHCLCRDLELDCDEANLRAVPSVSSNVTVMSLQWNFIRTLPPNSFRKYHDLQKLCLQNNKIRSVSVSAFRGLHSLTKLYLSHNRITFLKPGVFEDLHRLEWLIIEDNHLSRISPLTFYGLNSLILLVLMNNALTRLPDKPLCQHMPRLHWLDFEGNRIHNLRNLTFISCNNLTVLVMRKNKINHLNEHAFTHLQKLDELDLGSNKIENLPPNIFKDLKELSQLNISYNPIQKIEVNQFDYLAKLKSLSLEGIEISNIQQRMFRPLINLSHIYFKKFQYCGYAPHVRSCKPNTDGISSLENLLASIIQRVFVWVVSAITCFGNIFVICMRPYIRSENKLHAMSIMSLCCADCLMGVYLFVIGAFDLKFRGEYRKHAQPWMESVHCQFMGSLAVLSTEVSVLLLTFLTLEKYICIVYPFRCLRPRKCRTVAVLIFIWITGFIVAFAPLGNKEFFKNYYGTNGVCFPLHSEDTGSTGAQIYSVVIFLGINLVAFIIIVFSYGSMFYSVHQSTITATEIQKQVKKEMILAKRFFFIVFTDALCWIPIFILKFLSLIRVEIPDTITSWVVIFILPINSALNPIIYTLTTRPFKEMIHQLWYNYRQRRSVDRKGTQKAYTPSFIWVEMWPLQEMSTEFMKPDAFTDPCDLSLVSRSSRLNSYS

B1: R3(BΔ25-27) (peptide)
chain 1: RAAPYGVRLCGREFIRAVIFTCGG
chain 2: DVLAGLSSSCCKWGCSKSEISSLC
B2: R3(BΔ23-27)R/I5 (peptide)
chain 1: RAAPYGVRLCGREFIRAVIFTCR
chain 2: EDLQTLCCTDGCSMTDLSALC
modifications: N-terminal pyro-Glu ("<E")
notes: Chimeric two-chain peptide; also called R3(Δ23-27)R/I5; R3(ΔB23-27)R/I5
B3: R3(BΔ23-27)R (peptide)
chain 1: RAAPYGVRLCGREFIRAVIFTCR
chain 2: DVLAGLSSSCCKWGCSKSEISSLC
notes: probably a misprint
B4: R3(BΔ24-27) (peptide)
chain 1: RAAPYGVRLCGREFIRAVIFTCG
chain 2: DVLAGLSSSCCKWGCSKSEISSLC
B5: R3(BΔ26-27) (peptide)
chain 1: RAAPYGVRLCGREFIRAVIFTCGGS
chain 2: DVLAGLSSSCCKWGCSKSEISSLC

What was measured:
[1] = target: T4, human GPCR142 (human, UniProt Q8TDU9 1-374); experiment: radioligand competition, 50 pM 125I-R3/I5 tracer, COS-7 cells transiently expressing human GPCR142
T4 construct: whole, on cells
Description: (§1) COS-7 cells in 24-well tissue culture plates transiently expressing GPCR135, GPCR142 or LGR7 were used in radioligand binding assays as described by Liu et al., 2005a, J. Biol. Chem., 280:292-300. ¹²⁵I-Relaxin-3/INSL5 (¹²⁵I-R3/I5), a radiolabeled chimeric peptide with the human relaxin-3 B-chain and the human INSL5 A-chain (Liu et al., 2005b), was used at a final concentration of 50 pM as the tracer to characterize the binding properties of all truncated relaxin-3 peptides for GPCR135 and GPCR142. ¹²⁵I-relaxin-2 (PerkinElmer Biosciences, Boston) was used at a final concentration of 50 pM to characterize the binding properties of the truncated peptides for the relaxin receptor (LGR7). The results were analyzed by GraphPad Prism 4.0 software (Graphpad, San Diego). The IC₅₀ values, which are the ligand concentrations that inhibited 50% of the maximum specific binding, were then calculated.

[2] = target: T1, human LGR7; experiment: cell-based or functional assay
[3] = target: T2, human GPCR135; experiment: radioligand competition, 50 pM 125I-R3/I5 tracer, COS-7 cells transiently expressing human GPCR135
Description: as §1

[4] = target: T1, human LGR7; experiment: radioligand competition, 50 pM 125I-relaxin-2 tracer, COS-7 cells transiently expressing human LGR7
Description: as §1

[5] = target: T5, rat GPCR135 (rat, UniProt Q5Y987 29-469); experiment: radioligand competition, 125I-R3/I5 tracer, COS-7 cells transiently expressing recombinant rat GPCR135
[6] = target: T5, rat GPCR135; experiment: autoradiography, displacement of 125I-R3/I5 from endogenous GPCR135 in rat brain sections
[7] = target: T3, rat LGR7; experiment: radioligand competition, 125I-relaxin-2 tracer, COS-7 cells transiently expressing rat LGR7
Description: FIG. 3 illustrates that R3(BΔ23-27)R/I5 is bound by recombinant rat GPCR135 with high affinity, but not by rat LGR7. COS-7 cells transiently expressing recombinant rat GPCR135 or LGR7 were used to characterize the binding affinity of rat GPCR135 (A) and LGR7 for (B) R3(BΔ23-27)R/I5. ¹²⁵I-R3/I5 was used as the tracer for GPCR135 and ¹²⁵I-relaxin-2 was used as the tracer for LGR7 binding. Various concentrations of R3(BΔ23-27)R/I5 were used as the competitor and unlabeled human relaxin-3 was used as the positive control in the binding assay.
as §1, with “The IC₅₀ values, which are the ligand concentrations that inhibited 50% of the maximum specific binding, were then calculated.” left out

[8] = target: T1, human LGR7; experiment: radioligand competition, 50 pM 125I-relaxin-2 tracer, COS-7 cells transiently expressing human LGR7; NA = no affinity was observed in radioligand binding assay
Description: as §1

T4 sequence (Q8TDU9 whole entry): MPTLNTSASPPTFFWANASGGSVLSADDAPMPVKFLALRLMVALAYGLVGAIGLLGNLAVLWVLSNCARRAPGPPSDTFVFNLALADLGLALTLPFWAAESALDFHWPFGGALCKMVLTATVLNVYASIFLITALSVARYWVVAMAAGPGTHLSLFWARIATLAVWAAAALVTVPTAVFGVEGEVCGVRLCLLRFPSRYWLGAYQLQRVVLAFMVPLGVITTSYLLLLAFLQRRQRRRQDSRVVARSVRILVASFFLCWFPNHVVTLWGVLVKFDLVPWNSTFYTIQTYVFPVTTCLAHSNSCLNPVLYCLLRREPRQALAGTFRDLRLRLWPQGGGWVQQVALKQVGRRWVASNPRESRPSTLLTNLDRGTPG
T5 sequence (Q5Y987 entry or part of it): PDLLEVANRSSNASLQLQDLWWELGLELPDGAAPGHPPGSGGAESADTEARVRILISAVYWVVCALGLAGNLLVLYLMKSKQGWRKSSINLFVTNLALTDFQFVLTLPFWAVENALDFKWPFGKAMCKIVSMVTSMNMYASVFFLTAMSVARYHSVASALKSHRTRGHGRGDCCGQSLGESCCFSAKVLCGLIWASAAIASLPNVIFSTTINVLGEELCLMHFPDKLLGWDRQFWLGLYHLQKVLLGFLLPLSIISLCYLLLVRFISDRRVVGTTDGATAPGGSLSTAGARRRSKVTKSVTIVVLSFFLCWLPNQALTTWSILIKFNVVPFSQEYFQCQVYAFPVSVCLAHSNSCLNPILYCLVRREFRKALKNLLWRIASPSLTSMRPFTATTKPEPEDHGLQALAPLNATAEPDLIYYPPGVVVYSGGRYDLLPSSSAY

Binder	IC50 [1] [nM]	EC50, stimulation of β-gal expression in SK-N-MC/CRE-β-gal cells expressing human LGR7 [2] [nM]	IC50 [3] [nM]	IC50 [4] [nM]	IC50 [5] [nM]	IC50 [6] [nM]	binding result [7]	binding result [8]
B1	11.9	4.1	9.5	7.9	–	–	–	–
B2	2.29	–	0.67	–	0.25	0.4	no binding	no binding
B3	3.91	–	0.95	~200	–	–	–	–
B4	18.9	4.3	13.5	8.9	–	–	–	–
B5	9.5	3.3	11.5	6.3	–	–	–	–
